In general, Kd refers to the constant that tells how readily two partners part at equilibrium. One may read the koff as the first-order rate constant of dissociation. A word on the kon: it is the rate constant with which the complex forms.

First the molecules themselves.
B2: purified human sclerostin-FLAG® fusion protein (other, UniProt Q9BQB4 24-213, looked up)
chain: QGWQAFKNDATEIIPELGEYPEPPPELENNKTMNRAENGGRPPHHPFETKDVSEYSCRELHFTRYVTDGPCRSAKPVTELVCSGQCGPARLLPNAIGRGKWWRPSGPDFRCIPDRYRAQRVQLLCPGGEAPRARKVRLVASCKCKRLTRFHNQSELKDFGTEAARPQKGRKPRPRARSAKANQAELENAY
notes: Immobilised on CM5 chips (200 and 400 RU) or on anti-FLAG M2 agarose beads; also called FLAG®-Beer; FLAG®-tagged sclerostin; not shown: FLAG tag

Experiment [1] has as its target purified human sclerostin-FLAG® fusion protein (human) (UniProt Q9BQB4). Kind of experiment: SPR (Biacore), immobilised sclerostin. (In general: SPR reads the build-up and loss of mass on a sensor chip optically.)
In experiment [2] the target is B2. Kind of experiment: SPR (Biacore), immobilised sclerostin. The method, then:
The running buffer for Biacore analysis was HBS-EP CMD (10 mM HEPES, 150 mM NaCl, 3 mM EDTA, 0.005 % polysorbate 20, and 1 mg/ml carboxyl-methyl dextran). […] BMP proteins were diluted in running buffer and injected over the sensor chip using the Biacore 3000 instrumentation. The data was processed using the Bia-evaluation software (Biacore) by first correcting for background binding in a non-functionalized flow cell and analyzing the resulting binding curves for on/off rates.

In experiment [3] the target is T1, Noggin-Fc fusion protein (murine, UniProt P97466 28-232, limits assumed).
T1 construct: also called recombinant murine noggin; not shown: Fc portion, captured and detected with anti-human Fc antibodies
T1 sequence (looked up): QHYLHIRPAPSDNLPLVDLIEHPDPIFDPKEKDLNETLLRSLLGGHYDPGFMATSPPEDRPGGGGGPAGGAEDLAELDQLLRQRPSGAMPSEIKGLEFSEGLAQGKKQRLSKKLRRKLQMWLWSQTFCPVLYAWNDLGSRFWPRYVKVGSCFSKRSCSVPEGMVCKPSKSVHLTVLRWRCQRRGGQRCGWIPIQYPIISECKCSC
As to the kind of experiment: SPR, chip-immobilised recombinant human sclerostin, graded concentrations of recombinant murine noggin (FIG. 2B). The method, then: (§1) The running buffer for Biacore analysis was HBS-EP CMD (10 mM HEPES, 150 mM NaCl, 3 mM EDTA, 0.005% polysorbate 20, and 1 mg/ml carboxyl-methyl dextran). […] The data was processed using the Bia-evaluation software by first correcting for background binding in a non-functionalized flow cell and analyzing the resulting binding curves for on/off rates.

Experiment [4] addresses T2, recombinant murine chordin (murine, UniProt Q9Z0E2 27-948, limits assumed).
T2 sequence (looked up): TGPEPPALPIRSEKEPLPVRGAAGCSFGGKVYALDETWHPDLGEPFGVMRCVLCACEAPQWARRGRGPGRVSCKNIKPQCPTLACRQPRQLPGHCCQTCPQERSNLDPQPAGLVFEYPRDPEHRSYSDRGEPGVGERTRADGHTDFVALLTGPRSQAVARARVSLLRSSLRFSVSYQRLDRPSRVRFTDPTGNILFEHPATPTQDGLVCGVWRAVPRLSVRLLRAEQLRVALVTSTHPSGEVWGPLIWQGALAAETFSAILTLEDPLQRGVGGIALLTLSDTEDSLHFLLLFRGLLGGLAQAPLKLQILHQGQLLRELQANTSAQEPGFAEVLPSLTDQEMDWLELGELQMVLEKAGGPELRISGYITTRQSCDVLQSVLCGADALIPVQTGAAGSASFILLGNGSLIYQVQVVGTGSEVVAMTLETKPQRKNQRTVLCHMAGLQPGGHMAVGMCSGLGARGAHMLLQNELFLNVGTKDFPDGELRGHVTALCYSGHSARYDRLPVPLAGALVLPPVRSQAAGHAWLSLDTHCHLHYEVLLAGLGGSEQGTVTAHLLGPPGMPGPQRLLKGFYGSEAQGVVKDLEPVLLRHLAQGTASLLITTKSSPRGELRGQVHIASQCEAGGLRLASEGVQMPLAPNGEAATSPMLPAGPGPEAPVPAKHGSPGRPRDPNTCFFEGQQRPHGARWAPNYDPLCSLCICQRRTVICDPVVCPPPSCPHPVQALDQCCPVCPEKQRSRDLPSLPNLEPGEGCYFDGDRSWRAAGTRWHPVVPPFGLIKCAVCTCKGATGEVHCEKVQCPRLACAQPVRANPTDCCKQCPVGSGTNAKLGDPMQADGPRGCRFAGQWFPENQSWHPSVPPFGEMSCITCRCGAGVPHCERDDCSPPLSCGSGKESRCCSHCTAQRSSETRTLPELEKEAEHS
As to the kind of experiment: SPR (Biacore), human sclerostin immobilised on the chip, rmChordin injected at 0.62 to 10 ug/ml [box under the left panel].

In experiment [5] the target is T1, Noggin-Fc fusion protein. Kind of experiment: SPR (Biacore), human sclerostin immobilised on the chip, rmNoggin injected at 0.31 to 10 ug/ml [box under the right panel].
The target of experiment [6] is T2, recombinant murine chordin. As to the kind of experiment: SPR, chip-immobilised recombinant human sclerostin, graded concentrations of recombinant murine chordin (FIG. 2A). The method, then: as §1

BMP-7 (ligand): the Kd in experiment [1] is less than 15 nM.
Still for that read-out and setting: for BMP-5 (ligand) the value was less than 15 nM.
The same measure, in the same setting: for BMP-4 (ligand) the value was less than 15 nM.

B1: BMP-2 (ligand)
chain: QAKHKQRKRLKSSCKRHPLYVDFSDVGWNDWIVAPPGYHAFYCHGECPFPLADHLNSTNHAIVQTLVNSVNSKIPKACCVPTELSAISMLYLDENEKVVLKNYQDMVVEGCGCR
modifications: Disulfide-linked homodimer; one copy of the mature chain is given.
notes: Bought recombinant protein; also called recombinant BMP protein (R&D Systems)
With B1, in experiment [2], the equilibrium dissociation constant (Kd) was less than 10 nM.
Regarding B2, the figures for the Kd in experiment [3] and in experiment [6] were 2.92 nM and 1.76 nM, respectively. Further, the off-rate (koff) in experiment [4] was 0.00209 s⁻¹; in experiment [5], 0.00435 s⁻¹. Moreover, the kon in experiment [4] was 1.18e+06 M⁻¹ s⁻¹; in experiment [5], 1.46e+06 M⁻¹ s⁻¹.

For the origin of these results see patent US20050085418A1 (CELLTECH R AND D, published 2005).
